Results taken from patent publication US20030092164A1.

How the values were obtained:
TACI receptor = assay: I^125-labeled ZTNF4 binding to baby hamster kidney cells transfected with a TACI expression vector; Scatchard analysis
Ztnfr12 (human) = assay: I^125-labeled ZTNF4 binding to baby hamster kidney cells transfected with Ztnfr12; Scatchard analysis

Kd (TACI receptor): 1.25 nM
Kd (Ztnfr12 (human)): 1 nM
Substance: ZTNF4 (ligand)
